Measured values reported in IntAct's records for PubMed 25910212.

B1: U4/U6 small nuclear ribonucleoprotein Prp31 (Homo sapiens), Q8WWY3 (parent)
chain: MSLADELLADLEEAAEEEEGGSYGEEEEEPAIEDVQEETQLDLSGDSVKTIAKLWDSKMFAEIMMKIEEYISKQAKASEVMGPVEAAPEYRVIVDANNLTVEIENELNIIHKFIRDKYSKRFPELESLVPNALDYIRTVKELGNSLDKCKNNENLQQILTNATIMVVSVTASTTQGQQLSEEELERLEEACDMALELNASKHRIYEYVESRMSFIAPNLSIIIGASTAAKIMGVAGGLTNLSKMPACNIMLLGAQRKTLSGFSSTSVLPHTGYIYHSDIVQSLPPDLRRKAARLVAAKCTLAARVDSFHESTEGKVGYELKDEIERKFDKWQEPPPVKQVKPLPAPLDGQRKKRGGRRYRKMKERLGLTEIRKQANRMSFGEIEEDAYQEDLGFSLGHLGKSGSGRVRQTQVNEATKARISKTLQRTLQKQSVVYGGKSTIRDRSSGTASSVAFTPLQGLEIVNPQAAEKKVAEANQKYFSSMAEFLKVKGEKSGLMST
partner: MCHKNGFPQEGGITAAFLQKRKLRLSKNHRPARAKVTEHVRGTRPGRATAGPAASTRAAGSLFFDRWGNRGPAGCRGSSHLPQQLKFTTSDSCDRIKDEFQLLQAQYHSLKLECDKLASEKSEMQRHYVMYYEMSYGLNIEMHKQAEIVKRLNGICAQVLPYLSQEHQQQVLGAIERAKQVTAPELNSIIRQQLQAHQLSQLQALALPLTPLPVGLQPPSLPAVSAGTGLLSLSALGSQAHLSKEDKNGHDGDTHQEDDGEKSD
B2: Alpha-sarcoglycan (Homo sapiens), Q16586 (parent)
chain: MAETLFWTPLLVVLLAGLGDTEAQQTTLHPLVGRVFVHTLDHETFLSLPEHVAVPPAVHITYHAHLQGHPDLPRWLRYTQRSPHHPGFLYGSATPEDRGLQVIEVTAYNRDSFDTTRQRLVLEIGDPEGPLLPYQAEFLVRSHDAEEVLPSTPASRFLSALGGLWEPGELQLLNVTSALDRGGRVPLPIEGRKEGVYIKVGSASPFSTCLKMVASPDSHARCAQGQPPLLSCYDTLAPHFRVDWCNVTLVDKSVPEPADEVPTPGDGILEHDPFFCPPTEAPDRDFLVDALVTLLVPLLVALLLTLLLAYVMCCRREGRLKRDLATSDIQMVHHCTIHGNTEELRQMAASREVPRPLSTLPMFNVHTGERLPPRVDSAQVPLILDQH
B3: B-cell antigen receptor complex-associated protein beta chain (Homo sapiens), P40259 (parent)
chain: MARLALSPVPSHWMVALLLLLSAEPVPAARSEDRYRNPKGSACSRIWQSPRFIARKRGFTVKMHCYMNSASGNVSWLWKQEMDENPQQLKLEKGRMEESQNESLATLTIQGIRFEDNGIYFCQQKCNNTSEVYQGCGTELRVMGFSTLAQLKQRNTLKDGIIMIQTLLIILFIIVPIFLLLDKDDSKAGMEEDHTYEGLDIDQTATYEDIVTLRTGEVKWSVGEHPGQE
B4: 60 kDa heat shock protein, mitochondrial (Homo sapiens), P10809 (parent)
chain: MLRLPTVFRQMRPVSRVLAPHLTRAYAKDVKFGADARALMLQGVDLLADAVAVTMGPKGRTVIIEQSWGSPKVTKDGVTVAKSIDLKDKYKNIGAKLVQDVANNTNEEAGDGTTTATVLARSIAKEGFEKISKGANPVEIRRGVMLAVDAVIAELKKQSKPVTTPEEIAQVATISANGDKEIGNIISDAMKKVGRKGVITVKDGKTLNDELEIIEGMKFDRGYISPYFINTSKGQKCEFQDAYVLLSEKKISSIQSIVPALEIANAHRKPLVIIAEDVDGEALSTLVLNRLKVGLQVVAVKAPGFGDNRKNQLKDMAIATGGAVFGEEGLTLNLEDVQPHDLGKVGEVIVTKDDAMLLKGKGDKAQIEKRIQEIIEQLDVTTSEYEKEKLNERLAKLSDGVAVLKVGGTSDVEVNEKKDRVTDALNATRAAVEEGIVLGGGCALLRCIPALDSLTPANEDQKIGIEIIKRTLKIPAMTIAKNAGVEGSLIVEKIMQSSSEVGYDAMAGDFVNMVEKGIIDPTKVVRTALLDAAGVASLLTTAEVVVTEIPKEEKDPGMGAMGGMGGGMGGGMF
B5: Inactive peptidyl-prolyl cis-trans isomerase FKBP6 (Homo sapiens), O75344 (parent)
chain: MGGSALNQGVLEGDDAPGQSLYERLSQRMLDISGDRGVLKDVIREGAGDLVAPDASVLVKYSGYLEHMDRPFDSNYFRKTPRLMKLGEDITLWGMELGLLSMRRGELARFLFKPNYAYGTLGCPPLIPPNTTVLFEIELLDFLDCAESDKFCALSAEQQDQFPLQKVLKVAATEREFGNYLFRQNRFYDAKVRYKRALLLLRRRSAPPEEQHLVEAAKLPVLLNLSFTYLKLDRPTIALCYGEQALIIDQKNAKALFRCGQACLLLTEYQKARDFLVRAQKEQPFNHDINNELKKLASCYRDYVDKEKEMWHRMFAPCGDGSTAGES
B6: ATP synthase mitochondrial F1 complex assembly factor 2 (Homo sapiens), Q8N5M1 (parent)
chain: MWRSCLRLRDGGRRLLNRPAGGPSASMSPGPTIPSPARAYAPPTERKRFYQNVSITQGEGGFEINLDHRKLKTPQAKLFTVPSEALAIAVATEWDSQQDTIKYYTMHLTTLCNTSLDNPTQRNKDQLIRAAVKFLDTDTICYRVEEPETLVELQRNEWDPIIEWAEKRYGVEISSSTSIMGPSIPAKTREVLVSHLASYNTWALQGIEFVAAQLKSMVLTLGLIDLRLTVEQAVLLSRLEEEYQIQKWGNIEWAHDYELQELRARTAAGTLFIHLCSESTTVKHKLLKE
partner: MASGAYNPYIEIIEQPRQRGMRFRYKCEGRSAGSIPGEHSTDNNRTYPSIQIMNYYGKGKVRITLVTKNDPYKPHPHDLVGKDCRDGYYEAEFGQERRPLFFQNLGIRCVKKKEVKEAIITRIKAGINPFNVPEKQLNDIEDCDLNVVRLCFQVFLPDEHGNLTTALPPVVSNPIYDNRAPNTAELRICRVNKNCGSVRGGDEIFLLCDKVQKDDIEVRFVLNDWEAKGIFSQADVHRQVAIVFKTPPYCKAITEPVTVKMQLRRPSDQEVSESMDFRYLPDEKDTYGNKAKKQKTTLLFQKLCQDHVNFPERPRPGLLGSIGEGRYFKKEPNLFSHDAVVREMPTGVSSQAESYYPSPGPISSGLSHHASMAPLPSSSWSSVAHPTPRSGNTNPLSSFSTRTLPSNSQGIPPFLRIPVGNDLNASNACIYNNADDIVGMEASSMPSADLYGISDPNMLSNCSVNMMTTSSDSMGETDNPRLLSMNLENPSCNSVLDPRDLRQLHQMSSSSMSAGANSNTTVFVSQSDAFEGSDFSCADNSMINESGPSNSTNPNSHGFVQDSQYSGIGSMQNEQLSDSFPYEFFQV
B7: Phakinin (Homo sapiens), Q13515 (parent)
chain: MSERRVVVDLPTSASSSMPLQRRRASFRGPRSSSSLESPPASRTNAMSGLVRAPGVYVGTAPSGCIGGLGARVTRRALGISSVFLQGLRSSGLATVPAPGLERDHGAVEDLGGCLVEYMAKVHALEQVSQELETQLRMHLESKATRSGNWGALRASWASSCQQVGEAVLENARLMLQTETIQAGADDFKERYENEQPFRKAAEEEINSLYKVIDEANLTKMDLESQIESLKEELGSLSRNYEEDVKLLHKQLAGCELEQMDAPIGTGLDDILETIRIQWERDVEKNRVEAGALLQAKQQAEVAHMSQTQEEKLAAALRVELHNTSCQVQSLQAETESLRALKRGLENTLHDAKHWHDMELQNLGAVVGRLEAELREIRAEAEQQQQERAHLLARKCQLQKDVASYHALLDREESG
B8: Interferon-inducible double-stranded RNA-dependent protein kinase activator A (Homo sapiens), O75569 (parent)
chain: MSQSRHRAEAPPLEREDSGTFSLGKMITAKPGKTPIQVLHEYGMKTKNIPVYECERSDVQIHVPTFTFRVTVGDITCTGEGTSKKLAKHRAAEAAINILKANASICFAVPDPLMPDPSKQPKNQLNPIGSLQELAIHHGWRLPEYTLSQEGGPAHKREYTTICRLESFMETGKGASKKQAKRNAAEKFLAKFSNISPENHISLTNVVGHSLGCTWHSLRNSPGEKINLLKRSLLSIPNTDYIQLLSEIAKEQGFNITYLDIDELSANGQYQCLAELSTSPITVCHGSGISCGNAQSDAAHNALQYLKIIAERK
partner: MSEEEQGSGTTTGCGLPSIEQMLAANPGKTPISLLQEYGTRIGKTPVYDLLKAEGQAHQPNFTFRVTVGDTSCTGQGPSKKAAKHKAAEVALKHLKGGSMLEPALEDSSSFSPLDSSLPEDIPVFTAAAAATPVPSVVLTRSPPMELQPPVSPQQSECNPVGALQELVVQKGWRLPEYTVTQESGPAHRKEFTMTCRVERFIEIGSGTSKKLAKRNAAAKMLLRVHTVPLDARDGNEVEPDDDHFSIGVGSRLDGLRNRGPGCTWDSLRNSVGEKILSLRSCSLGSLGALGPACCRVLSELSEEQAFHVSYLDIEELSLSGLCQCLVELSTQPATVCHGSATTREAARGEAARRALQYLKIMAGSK
B9: Homeobox protein SIX1 (Homo sapiens), Q15475 (parent)
chain: MSMLPSFGFTQEQVACVCEVLQQGGNLERLGRFLWSLPACDHLHKNESVLKAKAVVAFHRGNFRELYKILESHQFSPHNHPKLQQLWLKAHYVEAEKLRGRPLGAVGKYRVRRKFPLPRTIWDGEETSYCFKEKSRGVLREWYAHNPYPSPREKRELAEATGLTTTQVSNWFKNRRQRDRAAEAKERENTENNNSSSNKQNQLSPLEGGKPLMSSSEEEFSPPQSPDQNSVLLLQGNMGHARSSNYSLPGLTASQPSHGLQTHQHQLQDSLLGPLTSSLVDLGS
partner: B1 partner

Variants of: B1
Settings: with TLE5, Q08117-2

Row | effect of a mutation on the interaction | Variant
1 | with no effect | L107V

Variants of: B2
Settings: with sgta_human SGTA
Target sequence in this assay (O43765 whole entry): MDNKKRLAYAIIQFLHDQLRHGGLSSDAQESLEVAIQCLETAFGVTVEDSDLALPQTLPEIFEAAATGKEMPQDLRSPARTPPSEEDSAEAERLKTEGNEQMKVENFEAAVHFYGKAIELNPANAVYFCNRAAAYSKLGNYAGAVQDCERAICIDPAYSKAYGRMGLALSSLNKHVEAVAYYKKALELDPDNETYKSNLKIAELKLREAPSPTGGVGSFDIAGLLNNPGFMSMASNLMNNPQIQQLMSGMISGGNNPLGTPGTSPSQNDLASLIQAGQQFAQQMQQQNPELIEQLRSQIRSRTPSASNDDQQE

Row | effect of a mutation on the interaction | Variant
2 | with no effect | T208I
3 | with no effect | R98H
4 | with no effect | M312R

Variants of: B3
Settings: with sgta_human SGTA
Target sequence in this assay (O43765 whole entry): as above

Row | effect of a mutation on the interaction | Variant
5 | disrupting interaction strength | G137S

Variants of: B4
Settings: with lzts2_human LZTS2, Q9BRK4
Target sequence in this assay (Q9BRK4 whole entry): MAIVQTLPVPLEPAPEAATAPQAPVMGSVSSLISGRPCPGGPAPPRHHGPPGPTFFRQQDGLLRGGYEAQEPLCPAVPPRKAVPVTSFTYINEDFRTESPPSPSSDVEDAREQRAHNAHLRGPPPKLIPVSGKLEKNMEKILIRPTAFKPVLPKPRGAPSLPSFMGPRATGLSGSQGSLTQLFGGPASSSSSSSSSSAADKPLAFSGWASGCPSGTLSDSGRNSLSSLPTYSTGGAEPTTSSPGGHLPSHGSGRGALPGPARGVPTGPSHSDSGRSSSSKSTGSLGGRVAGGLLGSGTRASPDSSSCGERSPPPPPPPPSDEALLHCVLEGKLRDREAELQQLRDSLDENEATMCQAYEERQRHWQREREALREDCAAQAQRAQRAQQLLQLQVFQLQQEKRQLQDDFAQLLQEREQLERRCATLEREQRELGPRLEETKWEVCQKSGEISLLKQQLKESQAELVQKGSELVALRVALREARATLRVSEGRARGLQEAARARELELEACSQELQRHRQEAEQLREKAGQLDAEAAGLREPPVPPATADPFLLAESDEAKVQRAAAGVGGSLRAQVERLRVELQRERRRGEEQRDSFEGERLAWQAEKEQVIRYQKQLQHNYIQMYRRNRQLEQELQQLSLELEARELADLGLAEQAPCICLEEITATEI

Row | effect of a mutation on the interaction | Variant
6 | with no effect | Q461E
7 | with no effect | V98I
8 | disrupting interaction strength | D29G

Variants of: B5
Settings: with lzts2_human LZTS2, Q9BRK4
Target sequence in this assay (Q9BRK4 whole entry): as above

Row | effect of a mutation on the interaction | Variant
9 | with no effect | R202H
10 | disrupting interaction strength | F72L

Variants of: B5
Settings: with meox2_human MEOX2, P50222
Sequence of meox2_human MEOX2, P50222 (P50222 whole entry): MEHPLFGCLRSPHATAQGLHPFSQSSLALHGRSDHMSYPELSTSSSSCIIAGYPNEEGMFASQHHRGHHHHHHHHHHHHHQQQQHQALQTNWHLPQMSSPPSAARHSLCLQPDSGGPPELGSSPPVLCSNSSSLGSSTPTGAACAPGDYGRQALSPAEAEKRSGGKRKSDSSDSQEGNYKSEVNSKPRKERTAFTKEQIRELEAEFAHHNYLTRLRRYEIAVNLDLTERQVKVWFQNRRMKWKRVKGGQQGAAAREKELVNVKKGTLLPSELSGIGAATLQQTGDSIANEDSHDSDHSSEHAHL

Row | effect of a mutation on the interaction | Variant
11 | with no effect | R202H
12 | disrupting interaction strength | F72L

Variants of: B6
Settings: with REL

Row | effect of a mutation on the interaction | Variant
13 | disrupting interaction strength | W94R

Variants of: B7
Settings: with atf4_human ATF4, P18848
Sequence of atf4_human ATF4, P18848 (P18848 whole entry): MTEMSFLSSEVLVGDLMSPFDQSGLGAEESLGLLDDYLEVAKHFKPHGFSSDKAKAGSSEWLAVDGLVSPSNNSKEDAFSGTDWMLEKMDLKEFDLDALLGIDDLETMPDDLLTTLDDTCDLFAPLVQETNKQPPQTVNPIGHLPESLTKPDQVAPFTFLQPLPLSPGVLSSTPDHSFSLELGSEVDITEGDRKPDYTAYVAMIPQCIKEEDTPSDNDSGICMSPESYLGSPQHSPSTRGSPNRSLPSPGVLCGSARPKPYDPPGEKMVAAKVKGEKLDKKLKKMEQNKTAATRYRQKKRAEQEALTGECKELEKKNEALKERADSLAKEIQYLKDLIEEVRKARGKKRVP

Row | effect of a mutation on the interaction | Variant
14 | with no effect | A407D
15 | with no effect | R339H

Variants of: B7
Settings: with syce1_human SYCE1, Q8N0S2
Sequence of syce1_human SYCE1, Q8N0S2 (Q8N0S2 whole entry): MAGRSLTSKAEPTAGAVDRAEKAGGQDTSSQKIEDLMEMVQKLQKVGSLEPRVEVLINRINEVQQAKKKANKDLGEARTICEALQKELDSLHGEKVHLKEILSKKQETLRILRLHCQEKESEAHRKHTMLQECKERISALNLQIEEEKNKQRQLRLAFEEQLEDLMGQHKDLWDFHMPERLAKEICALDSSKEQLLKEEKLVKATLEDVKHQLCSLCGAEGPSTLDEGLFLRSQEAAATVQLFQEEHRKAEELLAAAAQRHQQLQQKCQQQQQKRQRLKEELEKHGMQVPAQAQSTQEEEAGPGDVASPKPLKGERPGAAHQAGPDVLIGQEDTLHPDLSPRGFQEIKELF

Row | effect of a mutation on the interaction | Variant
16 | with no effect | A407D
17 | with no effect | R339H

Variants of: B8
Settings: with trbp2_human TARBP2, Q15633

Row | effect of a mutation on the interaction | Variant
18 | with no effect | P222L

Variants of: B9
Settings: with TLE5, Q08117-2

Row | effect of a mutation on the interaction | Variant
19 | with no effect | D227Y
20 | with no effect | R112C
21 | with no effect | R110W
